# B1: Hammerhead Ribozyme (parent)
# chain: ACCGGAUGUGCUUUCCGGUCUGAUGAGUCCGUGAGGACGAAACAG
# Variants of: B1
# Experiment: self-cleavage, relative activity (ratio to wild type); higher = more cleavage; co-transcriptional
row,Variant,self-cleavage
1,ACCGGAUGUGCUUUUCGGUCUGAUGAGUCCGUGAGGUCGAAACAG,0.953
2,ACCGGAUGUGCUUUUCGGUCUGAUGAGUCCGUGAGGGCGAAACAG,0.789
3,ACCGGAUGUGCUUUUCGGUCUGAUGAGUCCGUGAGGCCGAAACAG,0.714
4,ACCGGAUGUGCUUUGCGGUCUGACGAGUCCGUGAGGACGAAACAG,0.818
5,ACCGGAUGUGCUUUGCGGUCUGAGGAGUCCGUGAGGACGAAACAG,0.574
6,ACCGGAUGUGCUUUGCGGUCUGAAGAGUCCGUGAGGACGAAACAG,0.717
7,ACCGGAUGUGCUUUGCGGUCUGAUGAGUCCGUGACGACGAAACAG,0.456
8,ACCGGAUGUGCUUUGCGGUCUGAUGAGUCCGUGAAGACGAAACAG,0.468
9,ACCGGAUGUGCUUUGCGGUCUGAUGAGUCCGUGAUGACGAAACAG,0.455
10,ACCGGAUGUGCUUUGCGGUCUGAUGAGUCCGUGCGGACGAAACAG,0.671
11,ACCGGAUGUGCUUUGCGGUCUGAUGAGUCCGUGGGGACGAAACAG,0.833
12,ACCGGAUGUGCUUUGCGGUCUGAUGAGUCCGUGUGGACGAAACAG,0.904
13,ACCGGAUGUGCUUUGCGGUCUGAUGAGUCCGCGAGGACGAAACAG,0.804
14,ACCGGAUGUGCUUUGCGGUCUGAUGAGUCCGGGAGGACGAAACAG,0.574
15,ACCGGAUGUGCUUUGCGGUCUGAUGAGUCCGAGAGGACGAAACAG,0.875
16,ACCGGAUGUGCUUUGCGGUCUGAUGAGUCCGUGAGGACGAAACAC,0.379
17,ACCGGAUGUGCUUUGCGGUCUGAUGAGUCCGUGAGGACGAAACAA,0.446
18,ACCGGAUGUGCUUUGCGGUCUGAUGAGUCCGUGAGGACGAAACAU,0.421
19,ACCGGAUGUGCUUUGCGGUCUGAUGAGUCCGUGAGAACGAAACAG,0.417
20,ACCGGAUGUGCUUUGCGGUCUGAUGAGUCCGUGAGCACGAAACAG,0.284
21,ACCGGAUGUGCUUUGCGGUCUGAUGAGUCCGUGAGUACGAAACAG,0.374
22,ACCGGAUGUGCUUUGCGGUCUGAUGAGUCGGUGAGGACGAAACAG,0.618
23,ACCGGAUGUGCUUUGCGGUCUGAUGAGUCUGUGAGGACGAAACAG,0.722

row,Variant,self-cleavage
1,ACCGGAUGUGCUUUGCGGUCUGAUGAGUCAGUGAGGACGAAACAG,0.653
2,ACCGGAUGUGCUUUGCGGUCUGAUGAUUCCGUGAGGACGAAACAG,0.339
3,ACCGGAUGUGCUUUGCGGUCUGAUGACUCCGUGAGGACGAAACAG,0.427
4,ACCGGAUGUGCUUUGCGGUCUGAUGAAUCCGUGAGGACGAAACAG,0.464
5,ACCGGAUGUGCUUUUCGGUCUGAUGUGUCCGUGAGGACGAAACAG,0.752
6,ACCGGAUGUGCUUUUCGGUCUGAUGGGUCCGUGAGGACGAAACAG,0.313
7,ACCGGAUGUGCUUUUCGGUCUGAUGCGUCCGUGAGGACGAAACAG,0.424
8,ACCGGAUGUGCUUUGCGGACUGAUGAGUCCGUGAGGACGAAACAG,0.336
9,ACCGGAUGUGCUUUGCGGGCUGAUGAGUCCGUGAGGACGAAACAG,0.382
10,ACCGGAUGUGCUUUGCGGCCUGAUGAGUCCGUGAGGACGAAACAG,0.232
11,ACCGGAUGUGCUUUACGGUCUGAUGAGUCCGGGAGGACGAAACAG,0.769
12,ACCGGAUGUGCUUUACGGUCUGAUGAGUCCGAGAGGACGAAACAG,0.782
13,ACCGGAUGUGCUUUACGGUCUGAUGAGUCCGCGAGGACGAAACAG,0.952
14,ACCGGAUGUGCUUUGCGGUCUGAUGAGUCCGUGAGGGCGAAACAG,0.535
15,ACCGGAUGUGCUUUGCGGUCUGAUGAGUCCGUGAGGUCGAAACAG,0.367
16,ACCGGAUGUGCUUUGCGGUCUGAUGAGUCCGUGAGGCCGAAACAG,0.364
17,ACCGGAUGUGCUUUGCGGUCAGAUGAGUCCGUGAGGACGAAACAG,0.424
18,ACCGGAUGUGCUUUGCGGUCCGAUGAGUCCGUGAGGACGAAACAG,0.275
19,ACCGGAUGUGCUUUGCGGUCGGAUGAGUCCGUGAGGACGAAACAG,0.326
20,ACCGGAUGUGCUUUGCGAUCUGAUGAGUCCGUGAGGACGAAACAG,0.378
21,ACCGGAUGUGCUUUGCGCUCUGAUGAGUCCGUGAGGACGAAACAG,0.353
22,ACCGGAUGUGCUUUGCGUUCUGAUGAGUCCGUGAGGACGAAACAG,0.293
23,ACCGGAUGUGCUUUGCGGUCUGAUGAGGCCGUGAGGACGAAACAG,0.384

row,Variant,self-cleavage
1,ACCGGAUGUGCUUUGCGGUCUGAUGAGACCGUGAGGACGAAACAG,0.389
2,ACCGGAUGUGCUUUGCGGUCUGAUGAGCCCGUGAGGACGAAACAG,0.528
3,ACCGGAUGUGCUUUGUGGUCUGAUGAGUCCGUGAGGACGAAACAG,0.58
4,ACCGGAUGUGCUUUGGGGUCUGAUGAGUCCGUGAGGACGAAACAG,0.384
5,ACCGGAUGUGCUUUGAGGUCUGAUGAGUCCGUGAGGACGAAACAG,0.367
6,ACCGGAUGUGCUUUACGGUCUGAGGAGUCCGUGAGGACGAAACAG,0.743
7,ACCGGAUGUGCUUUACGGUCUGACGAGUCCGUGAGGACGAAACAG,0.892
8,ACCGGAUGUGCUUUACGGUCUGAAGAGUCCGUGAGGACGAAACAG,0.875
9,ACCGGAUGUGCUUUGCGGUCUGAUGAGUCCGUGAGGAAGAAACAG,0.446
10,ACCGGAUGUGCUUUGCGGUCUGAUGAGUCCGUGAGGAUGAAACAG,0.633
11,ACCGGAUGUGCUUUGCGGUCUGAUGAGUCCGUGAGGAGGAAACAG,0.386
12,ACCGGAUGUGCUUUGCGGUCUGAUGAGUACGUGAGGACGAAACAG,0.404
13,ACCGGAUGUGCUUUGCGGUCUGAUGAGUGCGUGAGGACGAAACAG,0.485
14,ACCGGAUGUGCUUUGCGGUCUGAUGAGUUCGUGAGGACGAAACAG,0.822
15,ACCGGAUGUGCUUUGCAGUCUGAUGAGUCCGUGAGGACGAAACAG,0.322
16,ACCGGAUGUGCUUUGCCGUCUGAUGAGUCCGUGAGGACGAAACAG,0.323
17,ACCGGAUGUGCUUUGCUGUCUGAUGAGUCCGUGAGGACGAAACAG,0.321
18,ACCGGAUGUGCUUUGCGGUAUGAUGAGUCCGUGAGGACGAAACAG,0.361
19,ACCGGAUGUGCUUUGCGGUGUGAUGAGUCCGUGAGGACGAAACAG,0.283
20,ACCGGAUGUGCUUUGCGGUUUGAUGAGUCCGUGAGGACGAAACAG,0.453
21,ACCGGAUGUGCUUUGCGGUCUGAUGAGUCCGUGAGGACGAAAAAG,0.262
22,ACCGGAUGUGCUUUGCGGUCUGAUGAGUCCGUGAGGACGAAAUAG,0.248
23,ACCGGAUGUGCUUUGCGGUCUGAUGAGUCCGUGAGGACGAAAGAG,0.327

row,Variant,self-cleavage
1,ACCGGAUGUGCUUUUCGGUCUGAUGAGUCCGUGAGGACGCAACAG,0.385
2,ACCGGAUGUGCUUUGCGGUCUGAUGGGUCCGUGAGGACGAAACAG,0.364
3,ACCGGAUGUGCUUUGCGGUCUGAUGCGUCCGUGAGGACGAAACAG,0.321
4,ACCGGAUGUGCUUUGCGGUCUGAUGUGUCCGUGAGGACGAAACAG,0.516
5,ACCGGAUGUGCUUUGCGGUCUUAUGAGUCCGUGAGGACGAAACAG,0.352
6,ACCGGAUGUGCUUUGCGGUCUAAUGAGUCCGUGAGGACGAAACAG,0.376
7,ACCGGAUGUGCUUUGCGGUCUCAUGAGUCCGUGAGGACGAAACAG,0.331
8,ACCGGAUGUGCUUUUCGGUCUGAUGAGUCCGUGAGGACGAAACAG,0.912
9,ACCGGAUGUGCUUUGCGGUCUGAUGAGUCCGUGAGGACGAAACAG,0.877
10,ACCGGAUGUGCUUUGCGGUCUGAUGAGUCCGUUAGGACGAAACAG,1
11,ACCGGAUGUGCUUUGCGGUCUGAUGAGUCCGUCAGGACGAAACAG,1.04
12,ACCGGAUGUGCUUUGCGGUCUGAUGAGUCCGUAAGGACGAAACAG,0.9
13,ACCGGAUGUGCUUUUCGGUCUGAUGAGUCCGUGCGGACGAAACAG,0.98
14,ACCGGAUGUGCUUUUCGGUCUGAUGAGUCCGUGUGGACGAAACAG,0.843
15,ACCGGAUGUGCUUUUCGGUCUGAUGAGUCCGUGGGGACGAAACAG,0.813
16,ACCGGAUGUGCUUUGCGGUCUGAUGAGUCCGUGAGGACGUAACAG,0.358
17,ACCGGAUGUGCUUUGCGGUCUGAUGAGUCCGUGAGGACGGAACAG,0.42
18,ACCGGAUGUGCUUUGCGGUCUGAUGAGUCCGUGAGGACGCAACAG,0.326
19,ACCGGAUGUGCUUUGCGGUCUGAUGAGUCCGUGAGGACUAAACAG,0.301
20,ACCGGAUGUGCUUUGCGGUCUGAUGAGUCCGUGAGGACCAAACAG,0.275
21,ACCGGAUGUGCUUUGCGGUCUGAUGAGUCCGUGAGGACAAAACAG,0.327
22,ACCGGAUGUGCUUUGCGGUCUGAUGAGUCCAUGAGGACGAAACAG,1.01
23,ACCGGAUGUGCUUUGCGGUCUGAUGAGUCCUUGAGGACGAAACAG,0.856

row,Variant,self-cleavage
1,ACCGGAUGUGCUUUGCGGUCUGAUGAGUCCCUGAGGACGAAACAG,0.792
2,ACCGGAUGUGCUUUGCGGUCUGAUCAGUCCGUGAGGACGAAACAG,0.262
3,ACCGGAUGUGCUUUGCGGUCUGAUAAGUCCGUGAGGACGAAACAG,0.348
4,ACCGGAUGUGCUUUGCGGUCUGAUUAGUCCGUGAGGACGAAACAG,0.315
5,ACCGGAUGUGCUUUACGGUCUGAUGAGCCCGUGAGGACGAAACAG,0.425
6,ACCGGAUGUGCUUUACGGUCUGAUGAGGCCGUGAGGACGAAACAG,0.378
7,ACCGGAUGUGCUUUACGGUCUGAUGAGACCGUGAGGACGAAACAG,0.413
8,ACCGGAUGUGCUUUGCGGUCUGCUGAGUCCGUGAGGACGAAACAG,0.301
9,ACCGGAUGUGCUUUGCGGUCUGGUGAGUCCGUGAGGACGAAACAG,0.32
10,ACCGGAUGUGCUUUGCGGUCUGUUGAGUCCGUGAGGACGAAACAG,0.303
11,ACCGGAUGUGCUUUGCGGUCUGAUGAGUCCGUGAGGACGACACAG,0.398
12,ACCGGAUGUGCUUUGCGGUCUGAUGAGUCCGUGAGGACGAGACAG,0.431
13,ACCGGAUGUGCUUUGCGGUCUGAUGAGUCCGUGAGGACGAUACAG,0.307
14,ACCGGAUGUGCUUUGCGGUCUGAUGAGUCCGUGAGGACGAAACUG,0.408
15,ACCGGAUGUGCUUUGCGGUCUGAUGAGUCCGUGAGGACGAAACCG,0.277
16,ACCGGAUGUGCUUUGCGGUCUGAUGAGUCCGUGAGGACGAAACGG,0.834
17,ACCGGAUGUGCUUUGCGGUCUGAUGAGUCCGUGAGGACGAAGCAG,0.276
18,ACCGGAUGUGCUUUGCGGUCUGAUGAGUCCGUGAGGACGAACCAG,0.277
19,ACCGGAUGUGCUUUGCGGUCUGAUGAGUCCGUGAGGACGAAUCAG,0.328
20,ACCGGAUGUGCUUUUCGGUCUGGUGAGUCCGUGAGGACGAAACAG,0.271
21,ACCGGAUGUGCUUUUCGGUCUGCUGAGUCCGUGAGGACGAAACAG,0.36
22,ACCGGAUGUGCUUUUCGGUCUGUUGAGUCCGUGAGGACGAAACAG,0.342
